{"source": "patent US20130018176A1", "about": "“METHODS OF PRODUCING HYBRIDOMAS AND MONOCLONAL ANTIBODIES AND ANTIBODIES PRODUCED THEREBY” (AMGEN INC., priority 2007, published 2013)", "molecules": {"B1": {"name": "Antibody Ab43: murine anti-human hepcidin monoclonal antibody generated by viral immunization; CDRs SEQ ID NOs: 16-21 (antibody, V domains shown)", "VH": "QIQLVQSGPELKKPGETVKISCKASGYTFTTYGMSWVKQAPGKGLKWMGWINTYSGVPTYADDFKGRFAFSLETSASTAYLQINNLKNEDTATYFCASLWYYGRAFDYWGQGTTLTVSS", "VL": "NIVLTQSPASLAVSLGQRATISCRASESVDSYGNSFMHWYQQKPGQPPKLLIYLASNLESGVPARFSGSGSRTDFTLTIDPVEADDAATYYCQQNNEDRTFGGGTKLEIK"}}, "key": {"[1]": {"test_system": "rcyno hepcidin", "sequence (as listed by the source)": "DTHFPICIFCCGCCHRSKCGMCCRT", "assay": "BIAcore solution equilibrium binding analysis on immobilized antibody", "parameters": "species or system cyno", "description": "The following example describes KinExA and BIAcore binding analysis for various antibodies to recombinant cyno hepcidin (rcyno).\nB) BIAcore Solution Equilibrium Binding Analysis for mAb R9 and Ab43 Binding to rcynoHepc.\nAntibody surface immobilization: antibodies R9 and Ab43 were immobilized on a CM5 chip. The immobilization was performed at a flow rate 10 uL/min of running buffer (DPBS: Dulbecco's Phosphate Buffer Saline1X, GIBCO 14190, with 0.005% BIAcore surfactant P-20) according to manufacturer's instructions. The carboxylated matrix of the sensor chip was first activated with a 100 ul injection of 1:1 mixture of EDC (75 mg/mL N-ethyl-N-(dimethylamine-propyl)carbodiimide in water, from BIAcore) and NHS (11.5 mg/mL N-hydroxysuccinimide in water, from BIAcore). 180 ul of antibodies (−20 ug/ml in 10 mM Na-acetate pH4.0) was injected to immobilize onto the sensor chip at 30 uL/min. […]\nBIAcore analysis: Fixed concentrations of rcynoHepc were incubated with various concentrations of mAb R9 and Ab43 at room temperature for several hours before run through the immobilized antibody surfaces. […] The equilibrium dissociation constant (KD) was calculated from nonlinear regression analysis of the competition curves using a one-curve one-site homogeneous binding model (KinEx™ software, Sapidyne Instruments Inc., Boise Id.)."}, "[2]": {"molecular_target": "T1, mature human hepcidin (SEQ ID NO: 9) (Homo sapiens, UniProt P81172)", "T1 construct": "made in house; host or cells: recombinant", "assay": "Epitope specificity: antibody binding to immobilized hepcidin surface after pre-complex with hepcidin variants (BIAcore)", "conditions": "interpretation of Table 6", "description": "(§1) The epitope specificity of anti-human hepcidin antibodies was evaluated by assessing ability of the antibodies to bind to mature human hepcidin (SEQ ID NO: 9) after pre-complex formation with different hepcidin variants.\n(§2) Recombinant hepcidin was immobilized on a CM5 chip according to manufacturer's instructions at a flow rate 10 μL/min of running buffer (DPBS: Dulbecco's Phosphate Buffer Saline1X, GIBCO 14190, with 0.005% BIAcore surfactant P-20). The carboxylated matrix of the sensor chip was first activated with a 100 μL injection of 1:1 mixture of EDC (75 mg/mL N-ethyl-N-(dimethylamine-propyl)carbodiimide in water, from Biacore) and NHS (11.5 mg/mL N-hydroxysuccinimide in water, from Biacore). 180 μL of rhHepc (˜20 μg/ml in 10 mM Na-acetate pH4.0) was injected to immobilize onto the sensor chip at 30 μL/min. The excess reactive groups of the sensor chip were deactivated with an injection of 100 μL of ethanolamine (1.0M, from Biacore).\n(§3) Forms of hepcidin used for the pre-complex were: correctly folded hepcidin as a positive control, the C1-C8, C3-C6 hepcidin variant (see Example 9), hepcidin 20 (N-terminally truncated, see Example 9) and linear hepcidin (Example 9). 1 nM solutions of antibody (2.41, 2.7, 43, and R9) were preincubated with 10 nM of each antigen at room temperature for several hours before run through the immobilized hepcidin surface. The binding signal obtained was proportional to the concentration of free antibody in solution at equilibrium.\n(§4) Some antibodies require the five amino acids at the N-terminus of the molecule (e.g. Ab43 and to a lesser extent, R9)."}, "[3]": {"test_system": "mature human hepcidin (SEQ ID NO: 9)", "assay": "Epitope specificity: antibody binding to immobilized hepcidin surface after pre-complex with hepcidin variants (BIAcore)", "description": "as §1, §2, §3, §4"}, "[4]": {"molecular_target": "T2, mature human hepcidin (SEQ ID NO: 9) (Homo sapiens, UniProt P81172)", "T2 construct": "made in house; host or cells: recombinant", "T2 sequence (P81172 60-84)": "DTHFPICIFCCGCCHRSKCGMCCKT", "assay": "Epitope specificity: antibody binding to immobilized hepcidin surface after pre-complex with hepcidin variants (BIAcore)", "conditions": "interpretation of Table 6", "description": "as §1, §2, §3, §4", "remark": "listed apart in the source"}, "[5]": {"molecular_target": "T3, synthetic human hepcidin (Homo sapiens, UniProt P81172)", "T3 construct": "made in house; host or cells: chemical synthesis (Fmoc solid phase), oxidatively folded", "T3 sequence (P81172 60-84 limits assumed)": "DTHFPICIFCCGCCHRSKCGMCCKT", "assay": "Iron-responsive beta-lactamase assay in 293/Fpn/BLA cells", "assay_type": "cell-based", "conditions": "50 ng/mL synthetic human hepcidin, 2.5 ug/mL ferric citrate, read-out: EC50, decreased intracellular concentration of iron", "procedure": "The effect of anti-human hepcidin antibodies on this hepcidin-mediated iron sequestration was evaluated in vitro. […] These 293/Fpn/BLA cells, taken from a 70-80% confluent culture, were plated at 2.8×10^5 cells/mL in DMEM (Invitrogen Cat#11965) 5% FBS (Invitrogen Cat#10099-141) PSQ (Invitrogen Cat#10378-016), 90 uL/well (25,000 cells/well) in BioCoat Poly-D Lysine coated plates (Becton-Dickinson Cat#35-6640) and incubated at 37C with 5% CO2. At the end of the same day, a solution of assay medium (DMEM 5% FBS PSQ) with 100 ug/mL doxycycline was made, 10 uL/well of it added to the plate, and the plate incubated overnight or for at least 20 hours. […] Mixtures were added at 100 uL/well and incubated overnight at 37C, 5% CO2 in a cell culture incubator. Plates were then removed from the incubator and equilibrated to room temperature for 10 minutes before adding 20 uL/well of the prepared Invitrogen GeneBlazer CCF4 A/M development reagent (Invitrogen Kit# K1085) and incubating for 90 minutes in the dark. Development reagent was also added to 16 wells of a control assay plate without cells containing 100 uL assay medium (DMEM 5% FBS PSQ) and incubated for the same time. Blue & Green fluorescence signals were then read on an Envision Multilabel Reader (Perkin-Elmer Inc.) by exciting at 409 nm and reading emissions at 447 nm (blue) and 520 nm (green)."}}, "data": [{"molecule": "B1", "values": [{"measurement": "binding affinity to rcyno hepcidin", "setting": "[1]", "result": "significant binding affinity"}, {"measurement": "Binding to Solution Epitopes, Hepc20", "setting": "[2]", "result": "− (100% antibody binding to the hepcidin surface and therefore no inhibition by hepcidin in solution)"}, {"measurement": "Binding to Hepcidin Surface, C1-C8 C3-C6", "setting": "[3]; 1 nM antibody preincubated with 10 nM C1-C8, C3-C6 hepcidin variant", "result": 25, "unit": "%"}, {"measurement": "Binding to Solution Epitopes, Linear Hepcidin", "setting": "[3]; interpretation of Table 6", "result": "− (100% antibody binding to the hepcidin surface and therefore no inhibition by hepcidin in solution)"}, {"measurement": "Binding to Solution Epitopes, Folded Hepcidin", "setting": "[4]", "result": "++++ (0% antibody binding to the hepcidin surface and therefore 100% inhibition by hepcidin in solution)"}, {"measurement": "EC50", "setting": "[5]", "result": 13.8, "unit": "nM"}]}]}
